# T1: TIM-3重组蛋白 (human, UniProt Q8TDQ0 22-200, limits assumed)
# T1 construct: also called 重组TIM-3蛋白; 固定化TIM-3
# T1 sequence (looked up): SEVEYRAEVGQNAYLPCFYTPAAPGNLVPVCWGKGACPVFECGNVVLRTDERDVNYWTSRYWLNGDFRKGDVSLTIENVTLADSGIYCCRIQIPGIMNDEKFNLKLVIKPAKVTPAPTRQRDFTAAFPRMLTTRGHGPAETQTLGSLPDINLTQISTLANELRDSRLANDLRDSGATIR
# Molecular target: T1, TIM-3重组蛋白
# Test: ELISA: TIM-3 coated at 5 ug/mL, biotinylated sdAb titrated 1:2 from 200 ug/mL, HRP-streptavidin, Prism fit
binder,measurement,value
"TIM-3-CX153 (VHH, Expressed in E. coli BL21 from pET28 and purified on a His nickel column; also called TIM-3-CX153-HisFlag; TIM-3-CX153单抗) VHH: QSMEESGGRLVKPDETLTLTCTVSGFSLSSYSMIWVRQAPGKGLEWIGIIGTTGNTYYASWAKGRFTISKTSTTVDLKMTSLTSEDTATYFCARYYADGVFDLWGQGTLVTVSS",Kd,278 nM

# Source: patent CN110938146A (UNIV HUAZHONG AGRICULTURAL, dated 2020)
